Patent US20140017168A1 (published 2014)
*: point of attachment. NOTA = O=C(O)CN1CCN(CC(=O)O)CCN(CC(=O)*)CC1; Aoc = NCCCCCCCC(=O)O

Tests used:
[1] = molecular target: T1, gastrin-releasing peptide receptor on PC-3 cells (UniProt P30550 1-384, limits assumed); assay: competition with 125I-bombesin on 3x10^6 PC-3 cells, inhibitor 56 to 0.44 nM
T1 construct: whole, on cells
Procedure: (§1) A NOTA-conjugated bombesin derivative (IMP468) was prepared as described above. […] Our initial experiment was to determine if IMP468 could specifically block bombesin from binding to PC-3 cells. We used IMP333 as a non-specific control. […] A range of 56 to 0.44 nM was used as our inhibitory concentrations.

[2] = molecular target: T1, gastrin-releasing peptide receptor on …; assay: competition with 125I-BBN on PC-3 cells, inhibitor 250 to 2 nM
Procedure: as §1
This experiment was repeated using a commercially available BBN peptide. We increased the amount of inhibitory peptide from 250 to 2 nM to block the ¹²⁵I-BBN from binding to PC-3 cells.

T1 sequence (P30550 whole entry): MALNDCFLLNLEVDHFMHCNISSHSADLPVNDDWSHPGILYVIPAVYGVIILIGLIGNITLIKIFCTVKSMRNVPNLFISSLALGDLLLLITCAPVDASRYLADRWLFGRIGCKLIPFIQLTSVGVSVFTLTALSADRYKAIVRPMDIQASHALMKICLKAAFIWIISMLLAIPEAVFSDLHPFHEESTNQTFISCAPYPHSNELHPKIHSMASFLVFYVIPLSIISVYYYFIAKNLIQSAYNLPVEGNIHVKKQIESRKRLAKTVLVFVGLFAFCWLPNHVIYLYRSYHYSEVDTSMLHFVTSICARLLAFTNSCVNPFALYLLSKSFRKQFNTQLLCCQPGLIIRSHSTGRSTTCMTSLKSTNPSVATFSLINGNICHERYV

IC50 [1]: 21.5 nM
IC50 [2]: 35.9 nM
B1: IMP468 (NOTA-NH-(CH2)7CO-Gln-Trp-Val-Trp-Ala-Val-Gly-His-Leu-Met-NH2) (peptide)
peptide: {NOTA-Aoc}-QWVWAVGHLM-NH2
SMILES: CSCC[C@H](NC(=O)[C@H](CC(C)C)NC(=O)[C@H](Cc1c[nH]cn1)NC(=O)CNC(=O)[C@@H](NC(=O)[C@H](C)NC(=O)[C@H](Cc1c[nH]c2ccccc12)NC(=O)[C@@H](NC(=O)[C@H](Cc1c[nH]c2ccccc12)NC(=O)[C@H](CCC(N)=O)NC(=O)CCCCCCCNC(=O)CN1CCN(CC(=O)O)CCN(CC(=O)O)CC1)C(C)C)C(C)C)C(N)=O
notes: also called NOTA-conjugated bombesin derivative; bombesin analogue
